Here are results for three substances from publication PMC3538848.

pKd: −log10 of the molar value.

The target in test [1] is A/Perth/16/2009 (H3N2) hemagglutinin ectodomain (influenza A virus A/Perth/16/2009 (H3N2)). As to the kind of experiment: negative-stain EM, single-particle 3D reconstruction.
Test [2] has as its target A/Solomon Islands/3/2006 (H1N1) hemagglutinin ectodomain (influenza A virus A/Solomon Islands/3/2006 (H1N1)). The description is as above.
Test [3] deals with A/Brisbane/10/2007 (H3N2) hemagglutinin ectodomain (influenza A virus A/Brisbane/10/2007 (H3N2)). As to the kind of experiment: BLI. (In general: Biolayer interferometry detects binding as a change in optical thickness at a sensor tip.)
For test [4], the target named is A/Panama/2007/1999 (H3N2) hemagglutinin ectodomain (influenza A virus A/Panama/2007/1999 (H3N2)). As to the kind of experiment: BLI.
Test [5] addresses A/Perth/16/2009 (H3N2) hemagglutinin ectodomain (influenza A virus A/Perth/16/2009 (H3N2)). Description: BLI.
For test [6], the target named is A/Brisbane/10/2007 (H3N2) hemagglutinin ectodomain (influenza A virus A/Brisbane/10/2007 (H3N2)). Description: ITC. (In general: Isothermal titration calorimetry measures the heat released or taken up as one component is titrated into another.)
The target of test [7] is A/Panama/2007/1999 (H3N2) hemagglutinin ectodomain (influenza A virus A/Panama/2007/1999 (H3N2)). Description: ITC.
In test [8] the target is A/Perth/16/2009 (H3N2) hemagglutinin ectodomain (influenza A virus A/Perth/16/2009 (H3N2)). Description: ITC.
The target of test [9] is A/Texas/36/1991 (H1N1) hemagglutinin ectodomain (influenza A virus A/Texas/36/1991 (H1N1)).

Turning to C05 Fab (Lys-C digestion of IgG), the stoichiometry N in test [1] and in test [2] was 3 each time.

As to “C05 Fab (recombinant, for binding studies)”, the pKd – broadly, the Kd on a negative log10 scale, so that one unit is a factor of ten – is under 5.30 in test [3]; 6.14 in test [4]; 7.74 in test [5]; 5.00 in test [6]; 6.65 in test [7]; 7.59 in test [8].

C05 IgG (antibody) gave an MIC, hemagglutination inhibition (HAI) in test [9] of over 100 µg/mL.
